Earlier results as cited in PMC8044989.

Biological target: RXFP3 (Homo sapiens) (UniProt Q9NSD7)
Chain of UniProt Q9NSD7 (Q9NSD7 whole entry): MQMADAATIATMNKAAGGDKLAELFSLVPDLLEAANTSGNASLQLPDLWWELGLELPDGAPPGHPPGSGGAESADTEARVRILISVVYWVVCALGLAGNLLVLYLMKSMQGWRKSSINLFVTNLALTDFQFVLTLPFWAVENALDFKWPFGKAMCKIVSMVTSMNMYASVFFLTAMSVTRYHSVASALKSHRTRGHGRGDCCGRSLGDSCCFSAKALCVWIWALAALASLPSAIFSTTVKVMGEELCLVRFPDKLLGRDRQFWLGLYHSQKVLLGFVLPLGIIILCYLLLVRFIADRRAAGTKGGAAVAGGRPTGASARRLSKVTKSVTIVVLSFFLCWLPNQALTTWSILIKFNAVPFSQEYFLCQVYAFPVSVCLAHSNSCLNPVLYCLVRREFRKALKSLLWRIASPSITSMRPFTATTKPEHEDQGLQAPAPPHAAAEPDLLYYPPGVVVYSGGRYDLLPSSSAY

relaxin-3 (from UniProt Q8WXF3)
Kd: 0.3 nM
